In paper PMC4793217 one finds percent of IP input precipitated data, which are given here for 2 molecules.

Experiment [1] deals with T1, ME31B, endogenous (D. melanogaster (endogenous in embryos)) (UniProt P23128).
T1 sequence: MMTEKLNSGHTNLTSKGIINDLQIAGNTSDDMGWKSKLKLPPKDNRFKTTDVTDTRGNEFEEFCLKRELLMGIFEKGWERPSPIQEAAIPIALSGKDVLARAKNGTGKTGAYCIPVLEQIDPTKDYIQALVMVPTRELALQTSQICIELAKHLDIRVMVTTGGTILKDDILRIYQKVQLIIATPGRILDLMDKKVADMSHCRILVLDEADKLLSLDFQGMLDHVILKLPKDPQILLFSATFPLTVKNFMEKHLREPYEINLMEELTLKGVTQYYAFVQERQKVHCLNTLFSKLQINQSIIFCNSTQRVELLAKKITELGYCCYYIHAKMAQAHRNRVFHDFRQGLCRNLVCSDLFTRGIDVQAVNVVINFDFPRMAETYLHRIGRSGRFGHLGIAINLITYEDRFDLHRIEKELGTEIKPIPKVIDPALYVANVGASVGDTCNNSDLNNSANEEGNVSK
The experiment can be described thus: co-IP.

The target in experiment [2] is IMP, endogenous (D. melanogaster (endogenous in embryos)). The experiment is described as follows: co-IP.

B1: anti-ME31B (P012) synthetic Fab (Fab, V domains shown)
VH: EVQLVESGGGLVQPGGSLRLSCAASGFNLSYSSIHWVRQAPGKGLEWVASIYSYYGYTYYADSVKGRFTISADTSKNTAYLQMNSLRAEDTAVYYCARWYWYGWALDYWGQGTLVTVSS
VL: DIQMTQSPSSLSASVGDRVTITCRASQSVSSAVAWYQQKPGKAPKLLIYSASSLYSGVPSRFSGSRSGTDFTLTISSLQPEDFATYYCQQGPYPYYGLITFGQGTKVEIK
Molecule B1 came in with a percent of IP input precipitated in experiment [1] of less than 1%.

B2: anti-IMP (P054) synthetic Fab (Fab, V domains shown)
VH: EVQLVESGGGLVQPGGSLRLSCAASGFNLSYSYIHWVRQAPGKGLEWVASIYSYYSYTYYADSVKGRFTISADTSKNTAYLQMNSLRAEDTAVYYCARWWVVYGMDYWGQGTLVTVSS
VL: DIQMTQSPSSLSASVGDRVTITCRASQSVSSAVAWYQQKPGKAPKLLIYSASSLYSGVPSRFSGSRSGTDFTLTISSLQPEDFATYYCQQHWWLITFGQGTKVEIK
B2 had a percent of IP input precipitated in experiment [2] of 1 to 10%.
